In assay [1] the target is T1, wild type (WT) GPIIb/IIIa ectodomain (heterodimer of SEQ ID NOs: 1 and 3) (human, UniProt P08514 32-993; P05106 27-716).
T1 construct: Recombinant purified ectodomain; also called GP2b3a; integrin αIIbβ3
Briefly: apparent monovalent affinity for GP2b3a (SEQ ID: 1 and 3); BLI or SPR, the method of each row is not given.

In assay [2] the target is T2, integrin alpha v beta III ectodomain (SEQ ID NOs: 245 and 3) (human, UniProt P06756 31-992; P05106 27-716).
T2 construct: Purified recombinant ectodomain; also called alpha v beta 3
The experiment in a line: BLI, monovalent format, yeast purified Fab; drawn table of apparent integrin binding specificity.

For assay [3], the target named is T2, integrin alpha v beta III ectodomain …. The experiment in a line: BLI, yeast purified Fab on sensor-associated AvB3 (sheet head: SEQ ID NOs: 199, 3; legend: SEQ ID NO 245 and 3).
For assay [4] the target is unchanged. The experiment in a line: BLI, yeast purified Fab on sensor-associated AvB3 (sheet head: SEQ ID NOs: 199, 3; legend: SEQ ID NO 245 and 3); Fab concentration not given. (In general: In BLI a coated tip is dipped into the sample, and binding shifts an interference pattern.)
The target in assay [5] is T3, GPIIb/IIIa on gel-purified human platelets (activated or resting) (human, UniProt P08514 32-1039; P05106 27-788).
T3 construct: whole, on cells; Native receptor on platelets; also called integrin αIIbβ3 on platelets; GPIIb/IIIa on platelets
The experiment in a line: flow cytometry, Fab on gel-purified human platelets; steeper curve with filled circles, which the legend box labels resting platelets. Background: A flow cytometer gives signals particle by particle.

Assay [6] addresses T2, integrin alpha v beta III ectodomain …. Briefly: BLI, yeast purified Fab on sensor-associated AvB3 (sheet head: SEQ ID NOs: 199, 3; legend: SEQ ID NO 245 and 3). This is another data set of the same source.
For assay [7] the target is unchanged. Briefly: BLI, monovalent format, yeast purified Fab; drawn table of apparent integrin binding specificity (legend of FIGS. 20A-D: alpha V beta III is SEQ ID NO 245 and 3).
Assay [8] shares this target. Briefly: BLI, yeast purified Fab on sensor-associated AvB3 (sheet head: SEQ ID NOs: 199, 3; legend: SEQ ID NO 245 and 3); Fab concentration not given. The source holds these as a separate data set.

B1: BIIB-4-309 (Fab, V domains shown)
VH: QVQLVQSGAEVKKPGASVKVSCKASGYTFTSYGISWVRQAPGQGLEWMGWISAYNGNTNYAQKLQGRVTMTTDTSTSTAYMELRSLRSDDTAVYYCARDGLGSSPWSAFDIWGQGTMVTVSS
VL: not shown
notes: Tested as Fab made from yeast-expressed, protein A-purified antibody; Only VH and VL are tied to the clone; also called Fab BIIB_4_309
For B1, the Kd in assay [1] is 25 nM. Also, the binding result in assay [2] is “no binding”.

B2: BIIB-4-175 (Fab, V domains shown)
VH: EVQLVESGGGLVQPGGSLRLSCAASGFTFSDHHMDWVRQAPGKGLEWVGRTRNKANSYTTEYAASVKGRFTISRDDSKNSLYLQMNSLKTEDTAVYYCARGPPYYADLGMGVWGQGTTVTVSS
VL: EIVMTQSPATLSVSPGERATLSCRASQSVSSNLAWYQQKPGQAPRLLIYGASTRATGIPARFSGSGSGTEFTLTISSLQSEDFAVYYCQQFNLYPYTFGGGTKVEIK
notes: Tested as Fab made from yeast-expressed, protein A-purified antibody; Only VH and VL are tied to the clone
For B2, the Kd in assay [1] is 15 nM. For the same molecule, in assay [2], the binding result is “no binding”.

B3: BIIB-4-224 (Fab, V domains shown)
VH: QLQLQESGPGLVKPSETLSLTCTVSGGSISSSSYYWGWIRQPPGKGLEWIGSIYYSGSTYYNPSLKSRVTISVDTSKNQFSLKLSSVTAADTAVYYCARDFYSSVYGMDVWGQGTTVTVSS
VL: DIQLTQSPSSLSASVGDRVTITCRASQSISSFLNWYQQKPGKAPKLLIYAASSLQSGVPSRFSGSGSGTDFTLTISSLQPEDFATYYCQQSYVHPLTFGGGTKVEIK
notes: as for B2
Consider B3, for which the Kd in assay [1] stood at 200 nM. Further, the binding result in assay [2] is given as “no binding”.

B4: BIIB-4-318 (Fab, V domains shown)
VH: QVQLQESGPGLVKPSETLSLTCAVSGYSISSGYYWGWIRQPPGKGLEWIGSIYHSGSTNYNPSLKSRVTISVDTSKNQFSLKLSSVTAADTAVYYCARSPRWRSTYANWFNPWGQGTLVTVSS
VL: DIQLTQSPSSVSASVGDRVTITCRASQGISSWLAWYQQKPGKAPKLLIYGASSLQSGVPSRFSGSGSGTDFTLTISSLQPEDFATYYCQQAAPFPLTFGGGTKVEIK
notes: as for B2
In the case of B4, in assay [1], the Kd came out at 3 nM. Moreover, the binding result in assay [2] is reported as “no binding”.

B5: BIIB-4-319 (Fab, V domains shown)
VH: QVQLQESGPGLVKPSETLSLTCAVSGYSISSGYYWAWIRQPPGKGLEWIGSIYHSGSTYYNPSLKSRVTISVDTSKNQFSLKLSSVTAADTAVYYCAREHSSSGQWNVWGQGTMVTVSS
VL: EIVLTQSPATLSLSPGERATLSCRASQSVSSYLAWYQQKPGQAPRLLIYDASNRATGIPARFSGSGSGTDFTLTISSLEPEDFAVYYCQQRSFYFTFGGGTKVEIK
notes: Tested as Fab made from yeast-expressed, protein A-purified antibody; Only VH and VL are tied to the clone; also called BBB-4-319
Consider B5, for which the binding result in assay [3] is given as “binds”.

B6: BIIB-4-311 (Fab, V domains shown)
VH: QVQLVQSGAEVKKPGASVKVSCKASGYTFTSYYMHWVRQAPGQGLEWMGVINPSGGSTSYAQKFQGRVTMTRDTSTSTVYMELSSLRSEDTAVYYCARLMSGSSGSWGQGTLVTVSS
VL: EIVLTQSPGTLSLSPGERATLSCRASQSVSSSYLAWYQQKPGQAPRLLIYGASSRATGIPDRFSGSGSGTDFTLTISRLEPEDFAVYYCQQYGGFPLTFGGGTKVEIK
notes: as for B2
As to B6, the Kd in assay [1] was found to be 64 nM. The binding result in assay [2] is “no binding”.

B7: BIIB-4-174 (Fab, V domains shown)
VH: QVQLVQSGAEVKKPGSSVKVSCKASGGTFSSYAISWVRQAPGQGLEWMGGIIPIFGTANYAQKFQGRVTITADESTSTAYMELSSLRSEDTAVYYCARGPPSAYGDYVWDIWGQGTMVTVSS
VL: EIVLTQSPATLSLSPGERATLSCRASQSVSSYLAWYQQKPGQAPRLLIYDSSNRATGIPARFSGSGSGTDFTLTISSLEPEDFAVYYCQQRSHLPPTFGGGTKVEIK
notes: as for B2
Regarding B7, the binding result in assay [4] is reported as “no binding”. Further, the Kd in assay [1] is 11 nM.

B8: BIIB-4-156 (Fab, V domains shown)
VH: QVQLVQSGAEVKKPGSSVKVSCKASGGTFSSYAISWVRQAPGQGLEWMGGIIPIFGTANYAQKFQGRVTITADESTSTAYMELSSLRSEDTAVYYCARDTGYYGASLYFDYWGQGTLVTVSS
VL: EIVLTQSPATLSLSPGERATLSCRASQSVSSYLAWYQQKPGQAPRLLIYDASNRATGIPARFSGSGSGTDFTLTISSLEPEDFAVYYCQQRSALPRTFGGGTKVEIK
notes: as for B2
Turning to B8, in assay [5], the EC50 (read off the curve) (usually the concentration giving half of the maximal effect) is around 20 nM. Further, the Kd in assay [1] is 11 nM. Further, the binding result in assay [6] was “binds”.

B9: BIIB-4-317 (Fab, V domains shown)
VH: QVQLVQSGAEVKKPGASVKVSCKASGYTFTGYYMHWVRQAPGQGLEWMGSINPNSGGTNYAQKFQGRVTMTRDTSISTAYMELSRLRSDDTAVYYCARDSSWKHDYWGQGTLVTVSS
VL: EIVLTQSPATLSLSPGERATLSCRASQSVSSYLAWFQQKPGQAPRLLIYDASNRATGIPARFSGSGSGTDFTLTISSLEPEDFAVYYCQQYSFYPLTFGGGTKVEIK
notes: as for B2
As to B9, the binding result in assay [7] is “binds”.

B10: BIIB-4-209 (Fab, V domains shown)
VH: QVQLVQSGAEVKKPGASVKVSCKASGYTFTSYGISWVRQAPGQGLEWMGWISAYNGNTNYAQKLQGRVTMTTDTSTSTAYMELRSLRSDDTAVYYCARGRPYDHYFDYWGQGTLVTVSS
VL: EIVLTQSPATLSLSPGERATLSCRASQSVSSYLAWYQQKPGQAPRLLIYDASNRATGIPARFSGSGSGTDFTLTISSLEPEDFAVYYCQQAYNYPFTFGGGTKVEIK
notes: as for B2
For the molecule B10, the Kd in assay [1] was 98 nM. Besides, the binding result in assay [7] is listed as “binds”.

B11: BIIB-4-204 (Fab, V domains shown)
VH: QVQLVQSGAEVKKPGASVKVSCKASGYTFTSYSMHWVRQAPGQGLEWMGIINPSGGSTSYAQKFQGRVTMTRDTSTSTVYMELSSLRSEDTAVYYCARSYDIGYFDLWGRGTLVTVSS
VL: EIVLTQSPATLSLSPGERATLSCRASQSVSSYLAWYQQKPGQAPRLLIYDASKRATGIPARFSGSGSGTDFTLTISSLEPEDFAVYYCQQDSFLPFTFGGGTKVEIK
notes: as for B2
Regarding B11, the Kd in assay [1] was determined as 170 nM. Further, the binding result in assay [7] is reported as “binds”.

B12: BIIB-4-147 (Fab, V domains shown)
VH: QVQLVQSGAEVKKPGASVKVSCKASGYTFTSYGISWVRQAPGQGLEWMGWISAYNGNTNYAQKLQGRVTMTTDTSTSTAYMELRSLRSDDTAVYYCARDLEYYDSSGYAYGYFDLWGRGTLVTVSS
VL: not shown
notes: as for B2
For the molecule B12, the binding result in assay [8] was “no binding”. For the same molecule, the Kd in assay [1] came to 5 nM.

(Values after patent US20220089745A1 (Biogen, published 2022).)
